Earlier results on two substances are cited in paper PMC9163320.

What is called pKa is the negative logarithm of the acid dissociation constant.

The target in this data set is Asp303 (UniProt position 303, VILFMDRNLEQ). The experiment in a line: NMR. The note with it: folded Hint domain; no ligand stated.

As to “Hedgehog protein, Hint domain of HhC, C258A mutant (Drosophila melanogaster; C258A)”, the pKa is listed as 4.2.
With “Hedgehog protein, Hint domain of the C-terminal autoprocessing domain (HhC) (Drosophila melanogaster)”, the pKa is recorded as 5.6.
